Measured values from the RNAGym collection of RNA variant scans (doi:10.1073/pnas.2313332121).

B1: TPR t1 (parent)
chain: GACCAAUCUGCCCUCAGAGCUCGAGAACAUCUUCGGAUGCAGAGGAGGCAGGCUUCGGUGGCGCGAUAGCGCCAACGUCCUCAACCUCCAAUGCAUCCCACCACAUGAUGAUGCCUGAAGAGCCUUGGUUUUUUG

Variants of: B1
Experiment: polymerase ribozyme fitness, log enrichment relative to wild type (log ratio); higher = more active; in vitro selection for triplet polymerase activity
Summary of the method: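 A heterodimeric triplet polymerase ribozyme had each of its subunits mutagenized by PCR into a library, which was transcribed. One round of in vitro selection, done in triplicate, annealed each library with a biotinylated primer, its partner subunit and triplets, then incubated it frozen at −7 °C before gel excision of extended constructs, streptavidin-bead capture and RT-PCR. Fitness is the logarithm of genotype enrichment relative to wild-type enrichment, based on Illumina sequencing of inputs and outputs and inverse-variance-weighted replicate averages. A base-2 logarithm is used, and genotypes were kept only with ≥10 input reads and ≥1 read per output.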

Row | Variant | polymerase ribozyme fitness (log ratio)
1 | G36A A46C C104U U116A | -3.8
2 | G36A C102U | -3.67
3 | G36A G42A U54G C72U A75U | -2.79
4 | G35A C89A | -5.84
5 | C34U C73A A111U C114G G135A | -6.34
6 | G36A A46U G57U C104U | -1.52
7 | G36A A46U G60C C124U | -0.384
8 | G35U C49A C64U | -6.12
9 | C34G G61A | -5.85
10 | G35A G120A | -2.08
11 | C34G C123A | -6.76
12 | C34G C123G | -4.46
13 | C34G C123U | -5.16
14 | C34U A41U C72U A105C G113C | -7.42
15 | G35A U55G | -4.9
16 | G36C C70U G113C | -3.46
17 | C34G C94U | -6.86
18 | G35A C56U C72U | -4.68
19 | G36C C88U C89A | -3.3
20 | C34G G35U G60C G127C | -7.24
21 | G36A G57A C80U U112C C114A A119U G122U | -5.44
22 | G36C C53U G61A U112A G113U | -1.83
23 | C34U C114G | -6.1
24 | G36C C49A C79U C101G | -2.06

Row | Variant | polymerase ribozyme fitness (log ratio)
25 | C34U G61C | -4.48
26 | C34U G61U | -3.87
27 | C34U C104U U112C | -2.1
28 | C34U C123G | -1.94
29 | C34U C62G | -6.83
30 | G35A G113C | -5.03
31 | G36A A37G G52C | -4.05
32 | G36A G57U U129C | -1.31
33 | G36A G63U C85G | -2.03
34 | C34U G60A | -5.21
35 | C34U G60U | -3.24
36 | G35U U130C | -5.09
37 | G35U C97U G120U | -5.69
38 | C34U G60A C124A | -3.3
39 | G35A C70U C79G C115A U133A | -7.56
40 | G35A C101G | -5.52
41 | G35C A46C A118U C123G | -4.04
42 | C34G G39C G120U | -6.09
43 | G36A G117C | -4.58
44 | G36A G117U | -4.6
45 | G36A A83C | -1.41
46 | C34U A43G G63A G65U C124A | -6.99
47 | G36A U54A U112A | 1.22
48 | C34U G61C C94U C98U G120U G127U | -5.79

Row | Variant | polymerase ribozyme fitness (log ratio)
49 | G35A G61U | -3.61
50 | C34U G52A G71U | -4.6
51 | G35U A90C | -6.98
52 | G35C G39U C64U | -7.51
53 | G36A C62A C102A | -5.26
54 | G35A U129A | -5.19
55 | C34G C40U G113A C124A | -7.14
56 | G36A U109A | -5.64
57 | G35A G58C G60U | -5.24
58 | G36C C82G U126C | -2.57
59 | G36A G42A U54G | -3.13
60 | G35C G61C C79G | -6.99
61 | C34U C64U G113U | -5.9
62 | C34U G35U | -4.9
63 | G36A A41C A43U C88A A105C C123G | -5.88
64 | G35A C124G | -2
65 | G35A C56U C72U G113A U133A | -5.8
66 | C34U G69A | -5.14
67 | C34U C86U | -5.16
68 | C34G C101U | -6.46
69 | C34U G113A C124A | -5.17
70 | G35U | -4.66
71 | G35C | -4.55
72 | G35A | -3.65

Row | Variant | polymerase ribozyme fitness (log ratio)
73 | G36A A43U | -2.94
74 | C34U A68G C70U | -6.49
75 | G36A G61A | -0.395
76 | G35C C76U G77U C123U | -6.87
77 | G35C U106C G117A | -5.76
78 | G36C C56U C89G G117U | -7.02
79 | G36C C76U C123U | -0.606
80 | G36C A84U C85A C114G | -6
81 | G35U G45A | -5.37
82 | G35U C101A C115U | -6.19
83 | G35C U59C C124A | -3.15
84 | G35A U130G | -5.13
85 | G36A G52C C70G | -5.49
86 | G35U G61U C94U C124U | -4.83
87 | G36A G45C C49A C73A | -0.979
88 | C34U G51U G61A C114U | -6.98
89 | C34G G45C G69A A90U U92A G113A | -7.28
90 | C34U G69U A105U G120U | -2.74
91 | G35A C123A | -3.41
92 | G36A A46U A83G | -3.05
93 | G36A G63A | -1.78
94 | G35U C79U C114U U131C U134G | -5.19
95 | C34U U96C | -5.22
96 | C34U U96A | -5.35

Row | Variant | polymerase ribozyme fitness (log ratio)
97 | G35U G63U C104G | -7.12
98 | G35U G39A C80G C97U C114A | -6.51
99 | G36C C53U U55G G113C G120C | -2.92
100 | C34U G65C C70U G117C A121C | -7.03
101 | G36C C79G C98U C115U C124U | -6.21
102 | G36A G42U C53U U55G C86U G110U | -6.5
103 | G35C G61C C98G | -5.36
104 | G35U U67G U109A C115U | -7.12
105 | G36A U106A | -0.912
106 | G35U C86U C98A | -4.39
107 | G35C C76G | -4.89
108 | C34U U78G | -5.06
109 | C34G C86U | -6.51
110 | C34G G61A U87A G110C | -6.72
111 | G35U C62U | -3.74
112 | G36A C86U | -0.488
113 | G35U C101A G113C | -6.29
114 | C34U G120C | -3.96
115 | C34U G120A | -3.93
116 | C34U G44A G69A | -7.2
117 | G35A G60U | -3.33
118 | C34U C73A C102U C123A | -3.14
119 | G36A G57A | -1.38
120 | C34U A100C | -3.69

Row | Variant | polymerase ribozyme fitness (log ratio)
121 | G35A G48C | -4.48
122 | C34U U109A U130G | -4.69
123 | G35A C62A A119G | -4.46
124 | G35A U59C | -4.9
125 | C34U G42C | -6.44
126 | G36A G58A C62U U116A | -4.45
127 | G36A C73U G127C | -2.76
128 | G35U C82U | -7.04
129 | G35U G45U G61U C97A C123G | -5.69
130 | C34G C72A | -6.05
131 | G35A G61C A111C | -5.93
132 | G35U G61A | -4.27
133 | G35A G69C C115U | -6.53
134 | G35A G60U A121U | -2.03
135 | C34G G36A | -6.25
136 | C34U G45U C88A C124G | -4.4
137 | C34U C40U U54C | -4.99
138 | G36A C97A | -3.86
139 | C34U G117A | -5.61
140 | G35A C85U C94A | -6.51
141 | C34U C64U C94G G113A | -7.42
142 | C34U G61C C80U A83G | -7.08
143 | C34U C56U C115A | -4.02
144 | C34U C64U G93A A105C C114U | -5.2

Row | Variant | polymerase ribozyme fitness (log ratio)
145 | C34U C102U | -2.22
146 | C34G G44A A90G C101U A121U | -5.28
147 | G35A C99U U112A | -3.32
148 | C34U U112C C124A | -1.63
149 | C34U C94G | -5.95
150 | G35A C123G U129G | -2.61
151 | G36A U59G G69A C94U G113A | -4.53
152 | C34G C73G U116A A121U | -5.9
153 | G35U C64U U78C | -5.42
154 | C34U C70U U112A G135U | -6.08
155 | C34G C53G C104A | -4.3
156 | C34U G71U | -3.99
157 | G36C C76A C79U A121U | 1.44
158 | G35A C53G C62U G77C A84C | -4.08
159 | G36A G52A A66G C79G | -2.84
160 | G36C A66C U125G | -2.72
161 | G35A C72U A75U G77C C97U G120A U125A | -6.29
162 | C34U C56G | -4.5
163 | G35C A83U A121G U126A | -4.11
164 | G36A G61C G93C G110A | -6.04
165 | G35U U78A C86U G93A G122A C123A | -6.42
166 | G36A G61U A103C A118U | -6.19
167 | G36A A43G A105U U112C | -5.32
